Data taken from publication doi:10.1101/2021.09.02.458808.

Target: E2-E1 heterodimer of WT Sindbis virus (strain TE12) (Sindbis virus) (UniProt P03316)
Assay: cryo-EM structure

Substance “E2-E1 heterodimer of WT Sindbis virus (strain TE12) (from UniProt P03316 807-1245) (complex)” has a stoichiometry N of 3.
